From the supplement of paper PMC11811203

B1: THAP1; numbered along this chain (parent)
chain: MVQSCSAYGCKNRYDKDKPVSFHKFPLTRPSLCKEWEAAVRRKNFKPTKYSSICSEHFTPDCFKRECNNKLLKENAVPTIFLCTEPHDKKEDLLEPQEQLPPPPLPPPVSQVDAAIGLLMPPLQTPVNLSVFCDHNYTVEDTMHQRKRIHQLEQQVEKLRKKLKTAQQRCRRQERQLEKLKEVVHFQKEKDDVSERGYVILPNDYFEIVEVPA

Variants of: B1
Experiment: THAP1 transcriptional activity (GFP+/GFP- enrichment relative to wild-type constructs) (ratio to WT); higher = more THAP1 activity (PSMB5 reporter activation)
Conditions: with PSMB5 promoter-GFP reporter
Summary of the method: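 In duplicate, a lentivirus-delivered library with every residue from 2–213 of human THAP1 changed to all 20 amino acids was introduced at MOI ~0.3 into THAP1-knockout HEK-293T cells carrying endogenous PSMB5 tagged by mClover3 knock-in. Five days on, BFP+ cells were binned as GFP-dim or GFP-bright, and Illumina sequencing of genomic DNA amplicons counted each variant. Activity is the bright/dim read fold change, averaged over replicates and scaled to the mean of wild-type synonymous constructs.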

THAP1 transcriptional activity, by site and new letter:
V156: K 0.343 | C 0.708 | T 0.468 | H 0.201 | I 0.548 | R 0.349 | L 0.731 | D 0.153 | S 0.331 | Y 0.362 | G 0.25 | P 0.0732 | W 0.284 | Q 0.225 | E 0.213 | M 0.475 | A 0.555
R148: E 0.167 | W 0.179 | A 0.487 | M 0.261 | D 0.202 | L 0.312 | P 0.18 | T 0.312 | G 0.324 | F 0.196 | V 0.412 | Q 0.425 | C 0.26 | N 0.303 | K 1.02
Q168: F 0.256 | E 0.498 | D 0.417 | C 0.512
K161: V 0.461 | W 0.242 | N 0.475 | I 0.452 | C 0.37 | S 0.639 | H 0.451 | G 0.289 | T 0.505 | P 0.172 | D 0.188 | L 0.441 | M 0.518 | F 0.232 | E 0.167 | R 0.649 | A 0.3 | Y 0.195
I149: H 0.248 | C 0.454 | E 0.225 | D 0.218 | F 0.539 | W 0.164 | K 0.403 | Y 0.445 | Q 0.327 | G 0.197 | N 0.465 | R 0.245
L159: N 0.294 | P 0.158 | D 0.213 | R 0.193 | G 0.147 | T 0.209 | M 0.541 | C 0.151 | H 0.228 | Y 0.707 | E 0.147 | F 0.337 | A 0.245 | Q 0.261 | W 0.164 | V 0.327
K162: S 0.461 | V 0.232 | L 0.417 | E 0.269 | N 0.185 | P 0.15 | F 0.177 | Y 0.188 | A 0.4 | H 0.273 | G 0.11 | M 0.318 | T 0.273 | I 0.164 | W 0.206 | C 0.329 | D 0.27 | Q 0.612
T165: C 1.22 | Y 0.379 | R 0.898 | L 0.668 | E 0.6 | W 0.39 | S 1.6 | V 0.976 | P 0.196 | F 0.262 | Q 0.517 | K 0.633 | H 0.785 | N 1.38 | I 0.755 | D 0.416
R160: G 0.224 | H 0.433 | Y 0.263 | C 0.269 | A 0.391 | K 0.689 | I 0.228 | Q 0.492 | W 0.309 | D 0.216 | F 0.252 | L 0.205 | P 0.171 | M 0.278 | V 0.339
Q155: P 0.175 | W 0.376 | V 0.773 | R 0.65 | I 0.473 | H 0.765 | C 0.531 | S 0.563 | N 0.447 | Y 0.71 | D 0.521 | T 0.609 | K 0.749 | M 0.674
K147: M 0.271 | R 0.9 | V 0.383 | S 0.621 | A 0.537 | H 0.438 | I 0.346 | T 0.664 | P 0.502 | D 0.605 | N 0.976 | F 0.361 | E 0.626 | W 0.458 | Y 0.522 | G 0.51 | L 0.458
Q151: R 1.12 | L 0.804 | E 0.7 | P 0.303 | V 0.675 | M 0.894 | T 0.796 | A 0.791 | S 0.793 | I 0.817 | N 0.636 | G 0.864 | C 0.782
L152: V 0.213 | I 0.29 | F 0.236 | A 0.28 | E 0.227 | K 0.189 | P 0.177 | M 0.249 | N 0.287 | D 0.195 | S 0.211 | G 0.249 | H 0.215 | C 0.209 | Q 0.191 | R 0.306 | W 0.246
K164: S 0.326 | N 0.306 | F 0.167 | G 0.106 | R 1.17 | D 0.173 | I 0.252 | P 0.28 | Y 0.307 | E 0.343 | A 0.337 | H 0.316 | Q 0.304 | W 0.146 | L 0.298 | V 0.218 | M 0.258
E153: C 0.315 | Y 0.404 | I 0.393 | Q 0.585 | T 0.774 | W 0.268 | G 0.412 | S 0.631 | V 0.395 | R 0.491 | M 0.461 | K 0.513 | N 0.512
Q167: K 0.613 | V 0.351 | R 0.415 | S 0.649 | N 0.559 | D 0.239 | T 0.585 | A 0.311 | M 0.699 | L 0.245 | E 0.37 | W 0.235 | P 0.13 | F 0.28 | G 0.21 | H 0.575
E157: N 0.914 | C 0.685 | P 0.228 | D 0.766 | G 0.865 | M 1.03 | Q 0.766 | R 0.765 | W 0.741 | Y 0.488 | V 0.835 | L 0.434 | A 1.14 | S 1.39 | I 1.2
H150: L 0.769 | I 0.713 | A 1 | P 0.317 | V 1.1 | R 1.19 | C 0.635 | G 0.721 | W 0.976 | D 0.609 | Q 1.21 | M 1.09 | E 0.884 | N 0.896 | Y 0.767
R146: I 0.358 | N 0.584 | Y 0.539 | M 0.595 | S 1 | F 0.489 | Q 0.849 | P 0.535 | W 0.39
K158: E 0.562 | W 0.457 | F 0.365 | I 0.55 | P 0.175 | N 0.391 | G 0.542 | R 0.941 | V 0.617 | Y 0.666 | D 0.831 | L 0.386 | H 0.822 | M 0.607 | Q 0.708
L163: N 0.134 | V 0.545 | E 0.196 | W 0.188 | T 0.195 | P 0.149 | R 0.163 | K 0.168 | H 0.178 | S 0.142 | G 0.179 | C 0.422 | I 0.488 | F 0.23 | A 0.118 | Q 0.17 | D 0.0892
Q154: I 0.779 | A 1.06 | V 0.661 | E 0.776 | W 0.539 | L 0.867 | S 1.24 | D 0.962 | R 0.653 | M 1.17 | G 0.732
A166: Y 0.705 | C 1.14 | N 0.382 | D 0.217 | V 0.718 | P 0.211 | E 0.448 | W 0.485 | H 0.35 | R 0.328 | G 0.258 | L 0.89 | M 0.882 | T 0.965
